Results: the RNAGym collection of RNA variant scans (doi:10.1073/pnas.2313332121)
Variants at the floor of the assay were thinned out.

B1: TPR 5TU (parent)
chain: GGAUCUUCUCGAUCUAACAAAAAAGACAAAUCUGCCACAAAGCUUGAGAGCAUCUUCGGAUGCAGAGGCGGCAGCCUUCGGUGGCGCGAUAGCGCCAACGUUCUCAACUAUGACACGCAAAACGCGUGCUCCGUUGAAUGGAGUUUAUCAUG

Variants of: B1
Experiment: polymerase ribozyme fitness, log enrichment relative to wild type (log ratio); higher = more active; in vitro selection for triplet polymerase activity
In short: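 Each subunit of a heterodimeric triplet polymerase ribozyme was represented by a PCR-built, transcribed mutant library that underwent triplicate single-round in vitro selection with frozen incubation at −7 °C. Extended constructs were recovered by gel excision, streptavidin-bead capture and RT-PCR, and Illumina sequencing of input and output libraries kept genotypes with ≥10 input reads and ≥1 read per output. Fitness is the logarithm of genotype enrichment relative to wild-type enrichment, from inverse-variance-weighted replicate averages, with a logarithm base of 2.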

Row | Variant | polymerase ribozyme fitness (log ratio)
1 | C18U C87U | -1.47
2 | A3U G50U U145C | -0.472
3 | A22C C85G A150G | -2.71
4 | A12U A23G C87U A150C | ≤ -4.2
5 | G11A A23C A29C A30U C36U U44A A73U G81A C125U G143U | ≤ -4.2
6 | U6A A12U A20U A41U A89C A120U | -3.91
7 | A17G C27G C43U C87G A89C U109A A147U | ≤ -4.2
8 | A21G A49U C57G A150G | ≤ -4.2
9 | A40C U45A G48A A49C U55A G62C U77A C118A U134C A142G | ≤ -4.2
10 | C54A G92U | -2.39
11 | G50A C96U C125G | -2.14
12 | A20G G83U A89G C99U G141A U146A | ≤ -4.2
13 | A17U A24U A52G C57U C96G G140A | ≤ -4.2
14 | C38A U146G | -1.37
15 | U82A A106C | -0.884
16 | A16C A121G | -1.15
17 | C87A U90G C99G | ≤ -4.2
18 | A52G G58A C72A G83U C96U | ≤ -4.2
19 | A49U U56G C57U C96U U102G | -1.32
20 | U9C A28G C38A C54G G88C C103A | ≤ -4.2
21 | C96U U146G | -1.29
22 | G84A U101G | -0.429
23 | A49G G50C G71A A91U U151A | ≤ -4.2
24 | G133U G141C | -3.81

Row | Variant | polymerase ribozyme fitness (log ratio)
25 | A19G A52U C96U A122G | -2.62
26 | A30U U78C G94U A98G G152A | ≤ -4.2
27 | A16C A22U A26C A41U A52G C57U G58C G68U A91C C95G U139C G140A | ≤ -4.2
28 | C69A G84U A137G | -3.58
29 | A3U A16C U45A C75A U82G G84A C118U | ≤ -4.2
30 | C5A U13G C27A C36A C51U C87A | ≤ -4.2
31 | A24G G83C | -3.62
32 | A91G C96U U101C U144G | -2.18
33 | C96A A97U C118U | -0.741
34 | A91G A98G U130G C131A A150U | ≤ -4.2
35 | G59U C76G A110U G124C A137G | ≤ -4.2
36 | C10G A49G G59A A60U G88U A97U | ≤ -4.2
37 | A24G U55A | -3.22
38 | C18U G42A C85U C103U | -4.11
39 | C27U U31C A52G U134C | -0.377
40 | C57G U82A A91C A115G C125A C149A | ≤ -4.2
41 | C27U A73G C79A G140C | ≤ -4.2
42 | A37G G58U A89G | -2.84
43 | A49G U135C U145C | -2.6
44 | A113C U135A G136A | -4.05
45 | A12U A21C A52C C85U | -1.19
46 | G59U G86A G143U | -3.52
47 | A22C A40C C63G | 0.514
48 | A39C G86A G152U | ≤ -4.2

Row | Variant | polymerase ribozyme fitness (log ratio)
49 | U55A G74A | -3.26
50 | A23U U53A U55G C95U C103U C114U G126A G136U A150U | ≤ -4.2
51 | C54G C87G C99G | ≤ -4.2
52 | U44A G50A C93G | ≤ -4.2
53 | C10U A39C U77A G84A C95U A120U | ≤ -4.2
54 | A3G A39U G83U G84U C114U A119G | ≤ -4.2
55 | G50U G92C | -0.0562
56 | C38G C54U C57U U146C | -1.16
57 | A73G A122C | 0.468
58 | U45A G81C C96G | -3.93
59 | U45G G59A G84A A89G C118U | -3.18
60 | A40C C57G C85A U102A | ≤ -4.2
61 | A23U G34A U53G G74A U139A | ≤ -4.2
62 | U9G A39G U53A G83C C87A C108G U151A | ≤ -4.2
63 | C14A A20U A26C G84A G141A | ≤ -4.2
64 | C35U G86A | -1.37
65 | C10U G58A U109G | -3.43
66 | G70C G94A | -3.61
67 | G83A G92U G133C A142G | -3.79
68 | G50A U56A G62C C63A C96G | ≤ -4.2
69 | A24U A30C G48U A60G G94C U109G A113U | ≤ -4.2
70 | A41G U56G G58U G81A G84A C116U C149U | -1.86
71 | A40U A64G C75U A97G | ≤ -4.2
72 | U82G C105U | 1.06

Row | Variant | polymerase ribozyme fitness (log ratio)
73 | U82A C95U | -0.587
74 | A12C A66C | ≤ -4.2
75 | A16G U33G C93A C95A C103U A121G | ≤ -4.2
76 | U6G A21U C93U U127G | -3.85
77 | A17C U31G C76A C95G | ≤ -4.2
78 | C36U A52U U53C C79U A91U U135A | ≤ -4.2
79 | C14U U55G | -1.61
80 | C5G U53G G92A C103A U111G A120U | ≤ -4.2
81 | G83A C96U | -0.419
82 | G50A C57A G58C U77C G88C U139A | ≤ -4.2
83 | C38U A39C G92U | -2.59
84 | C76U C79U C85A G92C C132G | ≤ -4.2
85 | C5G A17G C93G C95U | -3.96
86 | U56A G84A A98U U101C | -1.09
87 | G46A G62U | -4.09
88 | A28U C38A C63U G83A C103A | ≤ -4.2
89 | C8G A22U C35G C69G G70C G92A | ≤ -4.2
90 | C5A A29U A52C G74A A97G | ≤ -4.2
91 | A12G U33A A39C G65A G70C C96G A119U C129A U135G | ≤ -4.2
92 | A3G G42A A49C C63U C69G C85G A115C | ≤ -4.2
93 | C10U A19U C35U C95U C99U | ≤ -4.2
94 | U7G C93U A98G G141A | -3.82
95 | C57U A89U U101A C125U G141A U146A | ≤ -4.2
96 | A52G G84U C96U U139C U144C | ≤ -4.2

Row | Variant | polymerase ribozyme fitness (log ratio)
97 | A98U U146G A150U | -0.247
98 | U6C A40C G50U A97U U104A G124C U130A | ≤ -4.2
99 | U15G C103G U151G | ≤ -4.2
100 | U33C U82A | -2.77
101 | A47U A64G A138C U144C | ≤ -4.2
102 | U55G C96A U109G G143A | -3.3
103 | A26G G68A C85G A120C | ≤ -4.2
104 | A52G U56A A64C G92U | ≤ -4.2
105 | A47U A52G U53G U56A U145G | -3.64
106 | U55G C63A U134G | -3.01
107 | A12U G58A U144C U146A | -3.88
108 | U56A C75U A121C G128U | -2.63
109 | A16U G84U C129A | ≤ -4.2
110 | U4G C14G A21U A30U C93G C131U G141A | ≤ -4.2
111 | A49C C99U | ≤ -4.2
112 | G25U C87U A122G | -3.5
113 | C54G G86U U135A U139A | ≤ -4.2
114 | G74A A106U A107U G133U | -3.93
115 | A19G G81C G92U U134G | -2.69
116 | C35U G58A A150G | -1.55
117 | A52C G59U | -0.875
118 | U45C C108G | ≤ -4.2
119 | A19C A20G U55A G58U C85A G140C | ≤ -4.2
120 | C54U U55A A98U U144A | -1.24

Row | Variant | polymerase ribozyme fitness (log ratio)
121 | U7G C38U | -2.77
122 | A24G A40U C43U A49C G84A G100U G124A C125G U145G | ≤ -4.2
123 | C14G A19U C116A | -2.21
124 | C87U A120C G152U | -3.33
125 | A47G G58C C93A U101G | -3.96
126 | U102G U144C | -3.06
127 | A17U G50A G67U G74A U134G | ≤ -4.2
128 | A41U U56A G84U C118A C125G | -4.09
129 | C27A C32U C95G A115C A122U C129A C131A | ≤ -4.2
130 | A52G G143C | -3.77
131 | A60U C99A G140U | ≤ -4.2
132 | A20U A23U G42A G67A C93U | ≤ -4.2
133 | G59A G83C | -0.954
134 | G68A G81U C96A | -3.57
135 | G84A G112C | -2.71
136 | U55A G86A | -1.59
137 | C14G A28U A29C C32G U44G C63U G83A G86C C105U C108U G143U | ≤ -4.2
138 | G11C U33A U44C C76A A89U C95U A122C C123U G133A | ≤ -4.2
139 | G83A C93U A121U | -2.08
140 | G126A A150C | -4.16
141 | A17U A28C U31A | -3.71
142 | C93G A98G | -2.91
143 | G128U U139C | -3.96
144 | A16U A41U | -2.64

Row | Variant | polymerase ribozyme fitness (log ratio)
145 | C14G U15C C38U C114U | -2.11
146 | A52C A107C A122C A138G | ≤ -4.2
147 | A24U G34C U56A G84A G133A | -3.92
148 | A37C G62C G86A C96G C99A | ≤ -4.2
149 | U61A | -1.18
150 | A3G C5G U7A G50U G86A C93U C96U | -0.354
151 | A17U A98U | -1.12
152 | A40C G48A | -1.28
153 | C87G G100C | -3.97
154 | C27A C43A A60U C87A G143U | ≤ -4.2
155 | U53G G94A | -4.1
156 | G62A C76U | -1.26
157 | A39G U56A G94U A120U G141C | -3.09
158 | U4G U6A U13A C14A U33A A39G | ≤ -4.2
159 | U53A G74A U145G | ≤ -4.2
160 | C38U G68C G88A A147C | ≤ -4.2
161 | A49C C87U U151G | ≤ -4.2
162 | C5G G84A C96A | -1.4
163 | G11C A122G | -2.55
164 | C93G A115G | -4.09
165 | A40C G65A A73U A98U | ≤ -4.2
166 | A39U G59C U146G A150G | -3.66
167 | C85A C116U A122C | -4.17
